Measured values published in US20250074995A1 (I MAB BIOPHARMA, published 2025).

Target: T1, monomeric human 4-1BB (human, UniProt Q07011 24-186)
T1 construct: SPR analyte or ligand
Experiment: SPR with monomeric human 4-1BB

B1: parental anti-4-1BB sdAb antibody conjugated with IgG1 Fc fragment (Fc fusion)
chain: QVQLQESGGGLVQPGGSLRLSCAASGYTYSSNCMGWFRQAPGKGLEGVAVICTGGGSPSYADSVKGRFTISRDNAKNTLYLQMNSLRAEDTAVYYCAADLLRAGTPLSSYEFNYWGQGTLVTVSS
notes: also called 4-1BB sdAb-Fc; not shown: IgG1 Fc fragment
  koff: 0.000168 s⁻¹
